Data published in patent US20230121511A1 (Chugai, published 2023).
Blank lines part the entries; values can stand above or below the binder they belong to.

Key:
[1] = target: T1, DualAE05-SG1202k/SG1201hV11 (engineered Cys at position 191 (EU) of CH1, unpaired); assay: SPR (Biacore T200, 37 C), tool antibody captured on mouse anti-human Fc, anti-CH1 antibody injected
T1 construct: Heterodimeric antibody with S191C in only one Fab arm, so it exists only in the “unpaired cysteines” form; not shown: light chain constant region
Experimental: (§1) Biacore binding experiments were performed to characterize binding activities of the anti-CH1 antibodies prepared in Example 3.2 to DualAE05-SG1201, DualAE05-SG1202, DualAE05-SG1202k/SG1201hV11, IgG1_001 and IgG4_001 at 37 degrees C. using Biacore T200 instrument (GE Healthcare). Specifically, mouse anti-human Fc (GE Healthcare) was immobilized onto all flow cells of a CM4 sensor chip using amine coupling kit (GE Healthcare). Tool antibodies DualAE05-SG1201, DualAE05-SG1202, DualAE05-SG1202k/SG1201hV11, IgG1_001 and IgG4_001 were captured onto flow cell, and then anti-CH1 antibodies obtained from Example 3.2 was injected over all the flow cells. All antibodies were prepared in ACES pH 7.4 containing 20 mM ACES, 150 mM NaCl, 0.05% Tween 20, 0.005% NaN₃. Sensor surface was regenerated each cycle with 3M MgCl₂.

DualAE05-SG1202 = target: T2, DualAE05-SG1202 (Heavy chain pos 202 is the engineered Cys (S191C, EU). It can form an inter-Fab disulfide between the two heavy chains, so the preparation is a mixture of the paired and unpaired cysteine forms.); assay: as above
T2 construct: Corresponds to DualAE05-SG1201 with S191C in both Fab arms
Experimental: as §1

IgG1_001 = target: T3, IgG1_001; assay: as above
T3 construct: Tool antibody for screening; captured on mouse anti-human Fc; copies: 2 + 2
Experimental: as §1

DualAE05-SG1201 = target: T4, DualAE05-SG1201; assay: as above
T4 construct: Bivalent tool antibody with human IgG1 CH1 without S191C
Experimental: as §1

IgG4_001 = target: T5, IgG4_001; assay: as above
T5 construct: Tool antibody for screening; captured on mouse anti-human Fc; copies: 2 + 2
Experimental: as §1

Human CD3eg linker = target: T6, Human CD3eg linker (human); assay: SPR (Biacore 8K), antibody captured on anti-human Fc, recombinant human CD3 as analyte, 25 C, 1:1 model
T6 construct: Single-chain soluble construct expressed in FreeStyle293F cells; used as the SPR analyte; also called recombinant human CD3
T6 chain: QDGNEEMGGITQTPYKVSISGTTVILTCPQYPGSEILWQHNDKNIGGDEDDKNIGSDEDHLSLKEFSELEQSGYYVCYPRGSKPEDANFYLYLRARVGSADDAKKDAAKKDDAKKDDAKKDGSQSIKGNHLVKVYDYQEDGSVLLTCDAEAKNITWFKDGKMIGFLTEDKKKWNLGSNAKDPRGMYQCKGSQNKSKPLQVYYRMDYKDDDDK
Experimental: Binding affinity of Dual-Fab antibodies (Dual-Ig) to human CD3 were assessed at 25 degrees C. using Biacore 8K instrument (GE Healthcare). Anti-human Fc (GE Healthcare) was immobilized onto all flow cells of a CM4 sensor chip using amine coupling kit (GE Healthcare). Antibodies were captured onto the anti-Fc sensor surfaces, then recombinant human CD3 or CD137 was injected over the flow cell. All antibodies and analytes were prepared in ACES pH 7.4 containing 20 mM ACES, 150 mM NaCl, 0.05% Tween 20, 0.005% NaN₃. Sensor surface was regenerated each cycle with 3M MgCl₂. […] CD137 binding affinity assay was conducted in same condition except assay temperature was set at 37 degrees C.

T3 sequence (VH, as listed by the source limits assumed, chain 1 of 2): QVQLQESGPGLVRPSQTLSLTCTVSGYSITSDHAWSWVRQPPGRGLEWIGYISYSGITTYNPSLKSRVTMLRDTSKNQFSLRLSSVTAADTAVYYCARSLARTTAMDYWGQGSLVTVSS
T3 sequence (VL, as listed by the source limits assumed, chain 2 of 2): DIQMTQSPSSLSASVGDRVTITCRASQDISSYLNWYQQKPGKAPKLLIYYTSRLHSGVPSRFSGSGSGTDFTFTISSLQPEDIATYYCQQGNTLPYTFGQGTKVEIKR
T5 sequence (VH, as listed by the source limits assumed): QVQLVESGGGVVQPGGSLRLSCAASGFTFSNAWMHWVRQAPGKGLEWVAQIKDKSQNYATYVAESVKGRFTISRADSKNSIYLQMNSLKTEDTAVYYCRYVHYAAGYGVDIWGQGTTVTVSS

B1: FAB0060hh (antibody, V domains shown)
VH: QSLEESGGRLVTPGTPLTLTCTASGFSLSTYWMNWVRQAPGKGLEWIGTINIDGSAAYASWAKGRFTISRTSTTVDLKAASPTTEDTATYFCATYGGDIWGPGTLVTVSS
VL: DVVMTQTPASVSEPVGGTVTIKCQASQSISTALAWYQQKPGQPPKLLIYGASTLESGVPSRFKGSGSGTEFTLTISDLECADAATYYCQCTYYGNNYGNAFGGGTKVEIK
notes: Conformation-specific anti-CH1 antibody from immunised rabbits
Relative binding activity to tool antibody (normalized against RU binding value for IgG1_001) [1]: 0.957

B5: H1573L0581 (antibody, V domains shown)
VH: QVQLVESGGGLVQPGRSLRLSCAASGFKFSNVWFHWVRQAPGKGLEWVAQIKDYYNAYAAYYAPSVKGRFTISRDDSKNSIYLQMNSLKTEDTAVYYCHYVHYASASTLLPAFGVDAWGQGTTVTVSS
VL: DIVMTQSPLSLPVTPGEPASISCQPSQEVVHMNRNTYLHWYQQKPGQAPRLLIYKVSNRFPGVPDRFSGSGSGTDFTLKISRVEAEDVGVYYCAQGTSHPFTFGQGTKLEIK
notes: Dual-Fab antibody (Dual-Ig) captured via anti-human Fc; also called DualAE07; dBBDu183H1573/dBBDu072L0581
Kd (Human CD3eg linker): 156 nM

The next lines start with the values.

Relative binding activity to tool antibody (normalized against RU binding value for IgG1_001) [1]: 0.929
B2: FAB0059ff (antibody, V domains shown)
VH: QSLEESGGRLVTPGTPLTLTCTASGFSLSSYWMNWVRQAPGKGLEWIGTVNIDGSTDYASWAKGRFTISRTSTTVDLKAASPTTEDTATYFCARYGGDIWGPGTLVIVSL
VL: DVVMTQTPASVSEPVGGTVTIKCQASQSISTALAWYQQKPGQPPKLLIYGASTLESGVPSRFKGSGSGTEFTLTISDLECADAATYYCQCTYYGSSYGNAFGGGTKVEIK
notes: as for B1

Relative binding activity to tool antibody (normalized against RU binding value for IgG1_001) (DualAE05-SG1202): 0.206
Relative binding activity to tool antibody (normalized against RU binding value for IgG1_001) [1]: 0.922
Relative binding activity to tool antibody (normalized against RU binding value for IgG1_001) (IgG1_001): 1
Relative binding activity to tool antibody (normalized against RU binding value for IgG1_001) (DualAE05-SG1201): 1.02
Relative binding activity to tool antibody (normalized against RU binding value for IgG1_001) (IgG4_001): -0.017
B3: FAB0133hh (antibody, V domains shown)
VH: QSLEESGGRLVTPGTPLTLTCTASGFSLSTYYMNWVRQAPGKGLEWIGTITIDGTAYYASWAKGRFTISRTSTTVDLKAASPTTEDTATYFCARYDGDIWGPGTLVTVSS
VL: DVVMTQTPASVSEPVGGTVTIKCQASQSISTALAWYQQKPGQPPKLLIHGASILESGVPSRFKGSGSGTEFTLTISDLECADVATYYCQCTYYGISYGNAFGGGTKVEIK
notes: as for B1

Relative binding activity to tool antibody (normalized against RU binding value for IgG1_001) [1]: 0.96
B4: FAB0135hh (antibody, V domains shown)
VH: QSLEESGGRLVTPGTPLTLTCTASGFSLSSYYMSWVRQAPGEGLEYIGWISSDGSTYYASWAKGRFTISRTSTTVDLKITSPTTEDTATYFCARDYAASNIWGPGTLVTVSS
VL: DVVMTQTPASVSEPVGGTVTIKCQASENIGNALAWYQQKPGQRPKLLIYGASNLESGVPSRFKGSRSGTEYTLTISDLECDDAATYYCQSTYYSSSYSNPFGGGTKVEIK
notes: as for B1
